Measurements: patent US20170008959A1 (AbbVie / Abbott, published 2017)
No end group written: not given here.

B1: sRAGE 1-331 (recombinant human sRAGE protein) (receptor)
chain: AQNITARIGEPLVLKCKGAPKKPPQRLEWKLNTGRTEAWKVLSPQGGGPWDSVARVLPNGSLFLPAVGIQDEGIFRCQAMNRNGKETKSNYRVRVYQIPGKPEIVDSASELTAGVPNKVGTCVSEGSYPAGTLSWHLDGKPLVPNEKGVSVKEQTRRHPETGLFTLQSELMVTPARGGDPRPTFSCSFSPGLPRHRALRTAPIQPRVWEPVPLEEVQLVVEPEGGAVAPGGTVTLTCEVPAQPSPQIHWMKDGVPLPLPPSPVLILPEIGPQDQGTYSCVATHSSHGPQESRAVSISIIEPGEEGPTAGGTKLGPEQKLISEEDLNSAVDHHHHHH
notes: His-tagged, from HEK 293 line 293/6.1 sRAGE His 6 (vector pcDNA3.1(-) Myc HIS); also called sRAGE-HIS
B2: AlterCharge1 (peptide)
peptide: FSRIRATHWRVDG
modifications: also: biotinylated, position not given here
notes: Control 13mer with four positive charges
B3: His-NogoR fusion protein (receptor, human, UniProt Q9BZR6 27-447, looked up)
chain: CPGACVCYNEPKVTTSCPQQGLQAVPVGIPAASQRIFLHGNRISHVPAASFRACRNLTILWLHSNVLARIDAAAFTGLALLEQLDLSDNAQLRSVDPATFHGLGRLHTLHLDRCGLQELGPGLFRGLAALQYLYLQDNALQALPDDTFRDLGNLTHLFLHGNRISSVPERAFRGLHSLDRLLLHQNRVAHVHPHAFRDLGRLMTLYLFANNLSALPTEALAPLRALQYLRLNDNPWVCDCRARPLWAWLQKFRGSSSEVPCSLPQRLAGRDLKRLAANDLQGCAVATGPYHPIWTGRATDEEPLGLPKCCQPDAADKASVLEPGRPASAGNALKGRVPPGDSPPGNGSGPRHINDSPFGTLPGSAEPPLTAVRPEGSEPPGFPTSGPRRRPGCSRKNRTRSHCRLGQAGSGGGGTGDSEGS
notes: Low-glycosylated fraction of about 80 kDa from CHO-K1 cells; also called soluble His-NogoR; NgR-HIS; not shown: Myc/His tag of vector pcDNA4/MycHIS A
B4: N-terminally truncated sRAGE (sRAGE 102-331) (receptor)
chain: MNRNGKETKSNYRVRVYQIPGKPEIVDSASELTAGVPNKVGTCVSEGSYPAGTLSWHLDGKPLVPNEKGVSVKEQTRRHPETGLFTLQSELMVTPARGGDPRPTFSCSFSPGLPRHRALRTAPIQPRVWEPVPLEEVQLVVEPEGGAVAPGGTVTLTCEVPAQPSPQIHWMKDGVPLPLPPSPVLILPEIGPQDQGTYSCVATHSSHGPQESRAVSISIIEPGEEGPTAGARGGPEQKLISEEDLNSAVDHHHHHH
notes: His-tagged, expressed from psecTAG 2A; no longer has a functional V domain

Key:
[1] = target: T1, Amyloid Aβ-1-42 oligomer (globulomer), biotinylated (UniProt P05067 672-713, biotinylated (1/5 biotin; position not stated)); test: HTRF competition: peptide preincubated with Aβ 1/5 biotin globulomer 800 nM, then sRAGE 1-331 added; blocked partner sRAGE
T1 construct: domain: Aβ 1-42; Concentrations are based on Aβ 1-42 monomers; also called Aβ oligomer; Aβ 1-42 oligomers

[2] = target: T1, Amyloid Aβ-1-42 oligomer (globulomer), …; test: HTRF direct binding: Aβ 1/5 biotin globulomer titrated on His-tagged sRAGE; anti-6HIS cryptate and streptavidin XL-665
[3] = target: T2, sRAGE-6×HIS (AA 23-352, NP_001127) (human, UniProt Q15109 23-331); test: AlphaScreen, biotinylated peptide on streptavidin donor beads, sRAGE-6×HIS 2.5 ng/µl on anti-HIS acceptor beads
T2 construct: range 23-352; Printed as a fusion protein with limits 23-352 on NP_001127; also called human sRAGE-6×HIS; RAGE receptor; not shown: 6×HIS tag
Experimental: The assay was carried out by the manufacturer's protocol in 25 mM HEPES, 100 mM NaCl of pH 7.4 and 0.1% BSA in a volume of 20 μl.
(§1) The individual components were brought together in a defined time sequence. […] The various amounts of peptide were then added in order, after a further 30 minutes, to add the donor beads. After a further 60 minutes, the fluorescence was measured in the AlphaQuest instrument from Perkin-Elmer with a time lag of one second. Each measured point was determined as triplicate. The evaluation and graphical workup of the results took place with the GraphPrism 4.0 software package.

His-NogoR fusion protein = target: B3; test: competition of AP-Nogo66 (0.1 nM) binding to coated His-NogoR
Experimental: (§2) This was followed by a blocking step for 1 hour with 2% strength bovine serum albumin (BSA) in Tris-HCl, pH 7.2, at room temperature. […] These stock solutions were then diluted three-fold.
(§3) After each incubation step, the plates were washed with washing buffer (10 mM Tris-HCl, pH 7.2 and 0.05% Tween20).

[4] = target: T3, AP-Nogo66 (Nogo-66 with an N-terminal alkaline phosphatase tag) (human, UniProt Q9NQC3 1055-1120); test: as above
T3 construct: range 1055-1120; Migrates as a dimer of about 140 kDa in gel chromatography; the AP tag induces the dimerization; also called NgR ligand AP-Nogo-66; not shown: alkaline phosphatase tag encoded by vector pAP-tag5
T3 sequence (looked up): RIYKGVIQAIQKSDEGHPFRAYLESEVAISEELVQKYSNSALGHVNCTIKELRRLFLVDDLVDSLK
Experimental: as §2, §3

[5] = target: T2, sRAGE-6×HIS (AA 23-352, NP_001127); test: AlphaScreen, biotinylated peptide and sRAGE-6×HIS
Experimental: The entire homogeneous assay was carried out in 25 mM HEPES, 100 mM NaCl of pH 7.4 and 0.1% BSA in a volume of 20 μl.
as §1, with “analysis” for “evaluation”

## TLQSELMVTPARGGDPRPTFSCSFSPGLPR (Synthetic 30mer) [AGER-CDP peptide 6]
[1]
  binding result: binds

## B1
[2]
  binding result: binds

## B2
[3]
  EC50 (read off the curve): ~50 nM

## QNITARIGEPLVLKCKGAPKKPPQRLEWKLN (also: biotin label in some assays, position not given here, also called Nterm 31; Nterm31) [NtermR31]
His-NogoR fusion protein
  IC50: 50 nM

## B3
[4]
  IC50: 2 nM

## CKGAPKKPPQRLE (also: biotinylated, position not given here (AlphaScreen assays only), also called Nterm 13) [NtermR13]
[5]
  EC50: 66 nM

## LPRHRALRTAPIQPRVWEPVPLEEVQLVVE (Synthetic 30mer) [AGER-CDP peptide 7]
[1]
  IC50 (read off the curve): ~4000 nM

## B4
[2]
  binding result: binds
